Target: equine FcRn (large alpha subunit p51) / equine beta-2-microglobulin complex, biotinylated (equine) (UniProt P30441)
Assay: SPR (Biacore), pH 6

Chain of UniProt P30441 (P30441 21-118, one chain of several): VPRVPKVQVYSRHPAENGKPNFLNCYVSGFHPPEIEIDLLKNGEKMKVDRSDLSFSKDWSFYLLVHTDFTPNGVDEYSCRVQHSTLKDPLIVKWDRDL

Binder | Kd [nM]
equine IgG4 M428C (antibody, part only; not given: variable domains, not shown: another chain or arm of the molecule) constant: ASTTAPKVFPLASHSAATSGSTVALGCLVSSYFPEPVTVSWNSGALTSGVHTFPSVLQSSGLYSLSSMVTVPASSLKSQTYICNVAHPASSTKVDKKIVIKECNGGCPAECLQVGPSVFIFPPKPKDVLMISRTPTVTCVVVDVGHDFPDVQFNWYVDGVETHTATTEPKQEQFNSTYRVVSVLPIQHKDWLSGKEFKCKVNNKALPAPVERTISKPTGQPREPQVYVLAPHRDELSKNKVSVTCLVKDFYPTDIDIEWKSNGQPEPETKYSTTPAQLDSDGSYFLYSKLTVETNRWQQGTTFTCAVCHEALHNHYTEKSVSKSPGK | 53.2
equine IgG4 M428G (antibody, part only; not given: variable domains, not shown: another chain or arm of the molecule) constant: ASTTAPKVFPLASHSAATSGSTVALGCLVSSYFPEPVTVSWNSGALTSGVHTFPSVLQSSGLYSLSSMVTVPASSLKSQTYICNVAHPASSTKVDKKIVIKECNGGCPAECLQVGPSVFIFPPKPKDVLMISRTPTVTCVVVDVGHDFPDVQFNWYVDGVETHTATTEPKQEQFNSTYRVVSVLPIQHKDWLSGKEFKCKVNNKALPAPVERTISKPTGQPREPQVYVLAPHRDELSKNKVSVTCLVKDFYPTDIDIEWKSNGQPEPETKYSTTPAQLDSDGSYFLYSKLTVETNRWQQGTTFTCAVGHEALHNHYTEKSVSKSPGK | 31.5
equine IgG4 M428F (antibody, part only; not given: variable domains, not shown: another chain or arm of the molecule) constant: ASTTAPKVFPLASHSAATSGSTVALGCLVSSYFPEPVTVSWNSGALTSGVHTFPSVLQSSGLYSLSSMVTVPASSLKSQTYICNVAHPASSTKVDKKIVIKECNGGCPAECLQVGPSVFIFPPKPKDVLMISRTPTVTCVVVDVGHDFPDVQFNWYVDGVETHTATTEPKQEQFNSTYRVVSVLPIQHKDWLSGKEFKCKVNNKALPAPVERTISKPTGQPREPQVYVLAPHRDELSKNKVSVTCLVKDFYPTDIDIEWKSNGQPEPETKYSTTPAQLDSDGSYFLYSKLTVETNRWQQGTTFTCAVFHEALHNHYTEKSVSKSPGK | 25.4
equine IgG4 M428H (antibody, part only; not given: variable domains, not shown: another chain or arm of the molecule) constant: ASTTAPKVFPLASHSAATSGSTVALGCLVSSYFPEPVTVSWNSGALTSGVHTFPSVLQSSGLYSLSSMVTVPASSLKSQTYICNVAHPASSTKVDKKIVIKECNGGCPAECLQVGPSVFIFPPKPKDVLMISRTPTVTCVVVDVGHDFPDVQFNWYVDGVETHTATTEPKQEQFNSTYRVVSVLPIQHKDWLSGKEFKCKVNNKALPAPVERTISKPTGQPREPQVYVLAPHRDELSKNKVSVTCLVKDFYPTDIDIEWKSNGQPEPETKYSTTPAQLDSDGSYFLYSKLTVETNRWQQGTTFTCAVHHEALHNHYTEKSVSKSPGK | 29.4
equine IgG4 M428Q (antibody, part only; not given: variable domains, not shown: another chain or arm of the molecule) constant: ASTTAPKVFPLASHSAATSGSTVALGCLVSSYFPEPVTVSWNSGALTSGVHTFPSVLQSSGLYSLSSMVTVPASSLKSQTYICNVAHPASSTKVDKKIVIKECNGGCPAECLQVGPSVFIFPPKPKDVLMISRTPTVTCVVVDVGHDFPDVQFNWYVDGVETHTATTEPKQEQFNSTYRVVSVLPIQHKDWLSGKEFKCKVNNKALPAPVERTISKPTGQPREPQVYVLAPHRDELSKNKVSVTCLVKDFYPTDIDIEWKSNGQPEPETKYSTTPAQLDSDGSYFLYSKLTVETNRWQQGTTFTCAVQHEALHNHYTEKSVSKSPGK | 30
equine IgG4 M428D (antibody, part only; not given: Variable domains, not shown: another chain or arm of the molecule) constant: ASTTAPKVFPLASHSAATSGSTVALGCLVSSYFPEPVTVSWNSGALTSGVHTFPSVLQSSGLYSLSSMVTVPASSLKSQTYICNVAHPASSTKVDKKIVIKECNGGCPAECLQVGPSVFIFPPKPKDVLMISRTPTVTCVVVDVGHDFPDVQFNWYVDGVETHTATTEPKQEQFNSTYRVVSVLPIQHKDWLSGKEFKCKVNNKALPAPVERTISKPTGQPREPQVYVLAPHRDELSKNKVSVTCLVKDFYPTDIDIEWKSNGQPEPETKYSTTPAQLDSDGSYFLYSKLTVETNRWQQGTTFTCAVDHEALHNHYTEKSVSKSPGK | 40.7
equine IgG4 M428I (antibody, part only; not given: variable domains, not shown: another chain or arm of the molecule) constant: ASTTAPKVFPLASHSAATSGSTVALGCLVSSYFPEPVTVSWNSGALTSGVHTFPSVLQSSGLYSLSSMVTVPASSLKSQTYICNVAHPASSTKVDKKIVIKECNGGCPAECLQVGPSVFIFPPKPKDVLMISRTPTVTCVVVDVGHDFPDVQFNWYVDGVETHTATTEPKQEQFNSTYRVVSVLPIQHKDWLSGKEFKCKVNNKALPAPVERTISKPTGQPREPQVYVLAPHRDELSKNKVSVTCLVKDFYPTDIDIEWKSNGQPEPETKYSTTPAQLDSDGSYFLYSKLTVETNRWQQGTTFTCAVIHEALHNHYTEKSVSKSPGK | 49.5
equine IgG4 M428P (antibody, part only; not given: variable domains, not shown: another chain or arm of the molecule) constant: ASTTAPKVFPLASHSAATSGSTVALGCLVSSYFPEPVTVSWNSGALTSGVHTFPSVLQSSGLYSLSSMVTVPASSLKSQTYICNVAHPASSTKVDKKIVIKECNGGCPAECLQVGPSVFIFPPKPKDVLMISRTPTVTCVVVDVGHDFPDVQFNWYVDGVETHTATTEPKQEQFNSTYRVVSVLPIQHKDWLSGKEFKCKVNNKALPAPVERTISKPTGQPREPQVYVLAPHRDELSKNKVSVTCLVKDFYPTDIDIEWKSNGQPEPETKYSTTPAQLDSDGSYFLYSKLTVETNRWQQGTTFTCAVPHEALHNHYTEKSVSKSPGK | 13000
equine IgG4 M428S (antibody, part only; not given: variable domains, not shown: another chain or arm of the molecule) constant: ASTTAPKVFPLASHSAATSGSTVALGCLVSSYFPEPVTVSWNSGALTSGVHTFPSVLQSSGLYSLSSMVTVPASSLKSQTYICNVAHPASSTKVDKKIVIKECNGGCPAECLQVGPSVFIFPPKPKDVLMISRTPTVTCVVVDVGHDFPDVQFNWYVDGVETHTATTEPKQEQFNSTYRVVSVLPIQHKDWLSGKEFKCKVNNKALPAPVERTISKPTGQPREPQVYVLAPHRDELSKNKVSVTCLVKDFYPTDIDIEWKSNGQPEPETKYSTTPAQLDSDGSYFLYSKLTVETNRWQQGTTFTCAVSHEALHNHYTEKSVSKSPGK | 40.6
equine IgG4 M428E (antibody, part only; not given: variable domains, not shown: another chain or arm of the molecule) constant: ASTTAPKVFPLASHSAATSGSTVALGCLVSSYFPEPVTVSWNSGALTSGVHTFPSVLQSSGLYSLSSMVTVPASSLKSQTYICNVAHPASSTKVDKKIVIKECNGGCPAECLQVGPSVFIFPPKPKDVLMISRTPTVTCVVVDVGHDFPDVQFNWYVDGVETHTATTEPKQEQFNSTYRVVSVLPIQHKDWLSGKEFKCKVNNKALPAPVERTISKPTGQPREPQVYVLAPHRDELSKNKVSVTCLVKDFYPTDIDIEWKSNGQPEPETKYSTTPAQLDSDGSYFLYSKLTVETNRWQQGTTFTCAVEHEALHNHYTEKSVSKSPGK | 40.8
equine IgG4 M428T (antibody, part only; not given: variable domains, not shown: another chain or arm of the molecule) constant: ASTTAPKVFPLASHSAATSGSTVALGCLVSSYFPEPVTVSWNSGALTSGVHTFPSVLQSSGLYSLSSMVTVPASSLKSQTYICNVAHPASSTKVDKKIVIKECNGGCPAECLQVGPSVFIFPPKPKDVLMISRTPTVTCVVVDVGHDFPDVQFNWYVDGVETHTATTEPKQEQFNSTYRVVSVLPIQHKDWLSGKEFKCKVNNKALPAPVERTISKPTGQPREPQVYVLAPHRDELSKNKVSVTCLVKDFYPTDIDIEWKSNGQPEPETKYSTTPAQLDSDGSYFLYSKLTVETNRWQQGTTFTCAVTHEALHNHYTEKSVSKSPGK | 71.8
equine IgG4 M428L (antibody, part only; not given: Variable domains, not shown: another chain or arm of the molecule) constant: ASTTAPKVFPLASHSAATSGSTVALGCLVSSYFPEPVTVSWNSGALTSGVHTFPSVLQSSGLYSLSSMVTVPASSLKSQTYICNVAHPASSTKVDKKIVIKECNGGCPAECLQVGPSVFIFPPKPKDVLMISRTPTVTCVVVDVGHDFPDVQFNWYVDGVETHTATTEPKQEQFNSTYRVVSVLPIQHKDWLSGKEFKCKVNNKALPAPVERTISKPTGQPREPQVYVLAPHRDELSKNKVSVTCLVKDFYPTDIDIEWKSNGQPEPETKYSTTPAQLDSDGSYFLYSKLTVETNRWQQGTTFTCAVLHEALHNHYTEKSVSKSPGK | 17.4
equine IgG4 M428K (antibody, part only; not given: variable domains, not shown: another chain or arm of the molecule) constant: ASTTAPKVFPLASHSAATSGSTVALGCLVSSYFPEPVTVSWNSGALTSGVHTFPSVLQSSGLYSLSSMVTVPASSLKSQTYICNVAHPASSTKVDKKIVIKECNGGCPAECLQVGPSVFIFPPKPKDVLMISRTPTVTCVVVDVGHDFPDVQFNWYVDGVETHTATTEPKQEQFNSTYRVVSVLPIQHKDWLSGKEFKCKVNNKALPAPVERTISKPTGQPREPQVYVLAPHRDELSKNKVSVTCLVKDFYPTDIDIEWKSNGQPEPETKYSTTPAQLDSDGSYFLYSKLTVETNRWQQGTTFTCAVKHEALHNHYTEKSVSKSPGK | 46.2
equine IgG4 M428R (antibody, part only; not given: variable domains, not shown: another chain or arm of the molecule) constant: ASTTAPKVFPLASHSAATSGSTVALGCLVSSYFPEPVTVSWNSGALTSGVHTFPSVLQSSGLYSLSSMVTVPASSLKSQTYICNVAHPASSTKVDKKIVIKECNGGCPAECLQVGPSVFIFPPKPKDVLMISRTPTVTCVVVDVGHDFPDVQFNWYVDGVETHTATTEPKQEQFNSTYRVVSVLPIQHKDWLSGKEFKCKVNNKALPAPVERTISKPTGQPREPQVYVLAPHRDELSKNKVSVTCLVKDFYPTDIDIEWKSNGQPEPETKYSTTPAQLDSDGSYFLYSKLTVETNRWQQGTTFTCAVRHEALHNHYTEKSVSKSPGK | 93.1
equine IgG4 M428N (antibody, part only; not given: variable domains, not shown: another chain or arm of the molecule) constant: ASTTAPKVFPLASHSAATSGSTVALGCLVSSYFPEPVTVSWNSGALTSGVHTFPSVLQSSGLYSLSSMVTVPASSLKSQTYICNVAHPASSTKVDKKIVIKECNGGCPAECLQVGPSVFIFPPKPKDVLMISRTPTVTCVVVDVGHDFPDVQFNWYVDGVETHTATTEPKQEQFNSTYRVVSVLPIQHKDWLSGKEFKCKVNNKALPAPVERTISKPTGQPREPQVYVLAPHRDELSKNKVSVTCLVKDFYPTDIDIEWKSNGQPEPETKYSTTPAQLDSDGSYFLYSKLTVETNRWQQGTTFTCAVNHEALHNHYTEKSVSKSPGK | 44.3
equine IgG1 T286M (antibody, part only; not given: variable domains, not shown: another chain or arm of the molecule) constant: ASTTAPKVFALAPGCGTTSDSTVALGCLVSGYFPEPVKVSWNSGSLTSGVHTFPSVLQSSGFYSLSSMVTVPASTWTSETYICNVVHAASNFKVDKRIEPIPDNHQKVCDMSKCPKCPAPELLGGPSVFIFPPNPKDTLMITRTPEVTCVVVDVSQENPDVKFNWYMDGVEVRMATTRPKEEQFNSTYRVVSVLRIQHQDWLSGKEFKCKVNNQALPQPIERTITKTKGRSQEPQVYVLAPHPDELSKSKVSVTCLVKDFYPPEINIEWQSNGQPELETKYSTTQAQQDSDGSYFLYSKLSVDRNRWQQGTTFTCGVMHEALHNHYTQKNVSKNPGK | 15.6
